Data reported in the Human Domainome abundance scans (Beltran et al. 2025).
± gives the uncertainty stated by the source.

B1: Zinc finger homeobox protein 3, residues 2244 to 2299; numbered along this chain, Q15911 (parent)
chain: SSRTRFTDYQLRVLQDFFDANAYPKDDEFEQLSNLLNLPTRVIVVWFQNARQKARK

Variants of: B1
Experiment: abundance fitness (aPCA) (normalised: wild type 0, dead -1); higher = more abundant; growth selection in yeast, the domain comes from the species named
Details: Homo sapiens

Abundance fitness, by site and new letter:
S1: R -0.097 ± 0.38 | A -0.047 ± 0.15 | V -0.158 ± 0.2 | E 0.181 ± 0.42 | T 0.003 ± 0.27 | F -0.357 ± 0.41 | N 0.158 ± 0.3
L11: C -0.743 ± 0.16 | F -0.364 ± 0.14 | S 0.062 ± 0.089 | G -0.171 ± 0.09 | A -0.181 ± 0.084 | M 0.204 ± 0.16
V13: T -0.116 ± 0.11 | M 0.173 ± 0.1 | C -0.276 ± 0.15 | S -0.048 ± 0.088 | Y 0.003 ± 0.19 | R -0.323 ± 0.088 | K 0.008 ± 0.11 | F -0.291 ± 0.19 | Q 0.168 ± 0.12
S2: A -0.353 ± 0.12 | T 0.214 ± 0.12 | L 0.026 ± 0.12 | V 0.042 ± 0.1 | C -0.118 ± 0.17 | I 0.393 ± 0.2 | N 0.007 ± 0.16 | H -0.043 ± 0.22
W46: H -0.617 ± 0.26 | S -0.526 ± 0.13 | V -0.88 ± 0.11 | K -0.764 ± 0.16
F17: M -0.039 ± 0.14 | L -0.381 ± 0.1 | S -0.025 ± 0.11 | P -1.08 ± 0.23 | K 0.011 ± 0.13 | E -0.076 ± 0.12 | H 0.245 ± 0.19
F47: W -0.399 ± 0.14 | H -0.534 ± 0.12 | A -0.729 ± 0.1 | L -0.639 ± 0.088 | I -0.408 ± 0.096 | E -0.762 ± 0.2 | T -0.618 ± 0.095
K56: T -0.032 ± 0.11 | Q -0.163 ± 0.41 | D -0.026 ± 0.23 | M -0.045 ± 0.22 | A 0.063 ± 0.2 | R -0.028 ± 0.12 | Y -0.158 ± 0.16
L38: R -0.517 ± 0.085 | F -0.522 ± 0.31 | P -1.03 ± 0.19 | S -0.506 ± 0.11
D16: I -0.22 ± 0.25 | S -0.023 ± 0.11 | Y -0.797 ± 0.24 | Q -0.035 ± 0.15 | R -0.035 ± 0.082 | E -0.129 ± 0.11 | K -0.179 ± 0.16 | G -0.023 ± 0.077
V42: T 0.186 ± 0.15 | K -0.036 ± 0.15 | D 0.055 ± 0.19 | R -0.083 ± 0.082 | L 0.039 ± 0.099 | Q -0.028 ± 0.15 | C -0.112 ± 0.13
R12: D 0.024 ± 0.087 | E -0.422 ± 0.18 | Y -0.524 ± 0.081 | Q 0.045 ± 0.1 | A -0.455 ± 0.081 | G -0.238 ± 0.11 | I -0.312 ± 0.076 | L -0.221 ± 0.065
T4: Q -0.08 ± 0.16 | N 0.211 ± 0.22 | M 0.304 ± 0.13 | K -0.661 ± 0.15 | V -0.634 ± 0.098 | G -0.394 ± 0.08 | H -0.072 ± 0.19 | R -0.388 ± 0.082
A20: L -0.188 ± 0.085 | M -0.268 ± 0.15 | W -0.36 ± 0.11 | G -0.13 ± 0.081
N37: R -0.057 ± 0.075 | A -0.096 ± 0.12 | F -0.236 ± 0.15 | Q -0.12 ± 0.15 | I -0.289 ± 0.16 | M -0.038 ± 0.12 | H -0.013 ± 0.16 | K -0.009 ± 0.14
R3: D 0.505 ± 0.13 | W 0.094 ± 0.11 | M 0.308 ± 0.13 | V 0.392 ± 0.089
F18: S -0.349 ± 0.1 | W -0.424 ± 0.13 | C -0.174 ± 0.12 | K -0.625 ± 0.14 | V -0.435 ± 0.084
K53: R -0.116 ± 0.09 | A 0.032 ± 0.1 | T -0.008 ± 0.078 | L -0.013 ± 0.07 | Y -0.12 ± 0.091 | N 0.138 ± 0.09 | S 0.062 ± 0.074
N49: H -0.249 ± 0.21 | Q -0.207 ± 0.14 | R -0.207 ± 0.089 | L -0.334 ± 0.093 | A -0.222 ± 0.11
L32: W -0.56 ± 0.1 | H -0.878 ± 0.24 | R -0.856 ± 0.1 | Y -0.19 ± 0.31
D27: Q -0.121 ± 0.11 | V -0.215 ± 0.073 | C -0.294 ± 0.11 | A -0.117 ± 0.071 | E -0.084 ± 0.085
K25: R 0.013 ± 0.086 | Q -0.26 ± 0.14 | T -0.161 ± 0.11 | V -0.115 ± 0.086 | C -0.184 ± 0.14 | P -0.228 ± 0.13
L36: P -1.06 ± 0.25 | V 0.024 ± 0.098 | Y -0.86 ± 0.35 | R -0.748 ± 0.11 | M -0.375 ± 0.24
V45: G 0.077 ± 0.071 | H 0.032 ± 0.092 | E 0.244 ± 0.1 | T -0.028 ± 0.074 | K -0.061 ± 0.095 | P -0.21 ± 0.076
Q31: C -0.031 ± 0.17 | T 0.035 ± 0.13 | F 0.162 ± 0.27 | L -0.257 ± 0.11 | W -0.279 ± 0.1 | Y -0.186 ± 0.24
N34: W -0.61 ± 0.33 | P -0.137 ± 0.2 | M -0.024 ± 0.4 | A 0.067 ± 0.14 | R -0.113 ± 0.19 | Y -0.161 ± 0.41
R5: T 0.274 ± 0.084 | I 0.323 ± 0.092 | E 0.321 ± 0.096 | C 0.323 ± 0.081 | M 0.478 ± 0.11 | G 0.19 ± 0.067 | K 0.29 ± 0.11 | N 0.305 ± 0.099 | V 0.362 ± 0.069 | F 0.234 ± 0.1
D26: E -0.214 ± 0.14 | M 0.018 ± 0.2
R51: C -0.168 ± 0.48 | L -0.137 ± 0.34 | S -0.256 ± 0.28 | G -0.606 ± 0.43
F29: K -0.412 ± 0.14 | R -0.324 ± 0.078 | N -0.622 ± 0.16 | M -0.271 ± 0.14 | H -0.484 ± 0.24 | A -0.362 ± 0.09 | D -0.955 ± 0.22
Q48: I -0.085 ± 0.17 | T -0.168 ± 0.14 | H -0.407 ± 0.19 | S -0.022 ± 0.1 | F -0.245 ± 0.19 | R -0.071 ± 0.09 | N -0.259 ± 0.21
E28: T -0.236 ± 0.13 | L -0.739 ± 0.11 | F -0.603 ± 0.21 | W -0.719 ± 0.11 | Y -0.785 ± 0.37 | G -0.488 ± 0.1 | V -0.142 ± 0.098 | H -0.435 ± 0.2
A50: K -0.09 ± 0.12 | T -0.08 ± 0.086 | C -0.047 ± 0.093 | G -0.298 ± 0.081 | V -0.322 ± 0.08 | R -0.061 ± 0.079
A22: E 0.082 ± 0.11 | K -0.17 ± 0.11 | Q -0.127 ± 0.087 | W -0.054 ± 0.12
I43: W -0.879 ± 0.17 | N -1 ± 0.29 | E -1.07 ± 0.21 | K -0.744 ± 0.26 | D -0.772 ± 0.18
Q52: S -0.023 ± 0.068 | Y -0.14 ± 0.097 | V 0.128 ± 0.083 | P -0.263 ± 0.068 | D 0.239 ± 0.12 | K -0.077 ± 0.12 | N -0.144 ± 0.088
R55: W -0.302 ± 0.17 | D -0.104 ± 0.2 | G -0.128 ± 0.11 | K 0.005 ± 0.24 | I -0.093 ± 0.097 | M -0.211 ± 0.16
Y9: L -0.216 ± 0.092 | H -0.129 ± 0.27 | M -0.005 ± 0.12 | D 0.002 ± 0.16
P24: S -0.734 ± 0.27 | A -0.555 ± 0.19 | N -0.922 ± 0.28
T7: L -0.363 ± 0.11 | C -0.563 ± 0.14 | F -0.725 ± 0.24 | P -0.84 ± 0.17 | G -0.487 ± 0.074 | M -0.46 ± 0.13 | K -0.272 ± 0.16 | S -0.186 ± 0.092
P39: S 0.035 ± 0.073 | D 0.196 ± 0.098 | K -0.197 ± 0.17 | T -0.209 ± 0.087 | G -0.297 ± 0.09 | Y -0.99 ± 0.12 | W -1.08 ± 0.23 | R -0.258 ± 0.082
V44: A -0.134 ± 0.1 | E -0.059 ± 0.11 | D 0.121 ± 0.19 | M -0.031 ± 0.13 | Y -0.571 ± 0.21 | R -0.093 ± 0.092 | S 0.08 ± 0.13 | L -0.005 ± 0.11
Q15: Y -0.559 ± 0.31 | E 0.015 ± 0.12 | D -0.172 ± 0.15 | W -0.213 ± 0.099 | P -0.889 ± 0.17 | N -0.077 ± 0.18
Y23: V -0.099 ± 0.075 | P -0.749 ± 0.14 | M 0.041 ± 0.092 | E 0.139 ± 0.089 | L -0.161 ± 0.073
S33: V -0.452 ± 0.1 | M -0.638 ± 0.17 | I -1.08 ± 0.36 | Y -0.871 ± 0.23 | Q -0.507 ± 0.17 | H -0.085 ± 0.17
F6: T -0.433 ± 0.09 | G -0.633 ± 0.1 | E -0.657 ± 0.21 | R -0.703 ± 0.092 | K -0.408 ± 0.16 | I -0.164 ± 0.078 | C -0.345 ± 0.085
R41: N 0.195 ± 0.093 | W -0.167 ± 0.14 | P -0.046 ± 0.09 | A 0.022 ± 0.079 | D 0.173 ± 0.1 | V 0.108 ± 0.081 | G 0.057 ± 0.079
L35: N -0.004 ± 0.19 | A -0.078 ± 0.089 | H -0.088 ± 0.14 | K 0.201 ± 0.14 | D 0.115 ± 0.16
D19: R -0.012 ± 0.14 | T 0.046 ± 0.24 | K -0.164 ± 0.27 | Q -0.263 ± 0.23 | M 0.169 ± 0.47 | S -0.299 ± 0.24
D8: I -0.641 ± 0.25 | N -0.237 ± 0.15 | M -0.202 ± 0.14 | W -0.401 ± 0.14 | Q -0.035 ± 0.17 | E -0.138 ± 0.1 | C -0.022 ± 0.17
Q10: P -0.923 ± 0.18 | M -0.216 ± 0.12 | T -0.714 ± 0.14 | I -0.769 ± 0.38 | H -0.563 ± 0.16 | E -0.59 ± 0.12
L14: Y -1.05 ± 0.31 | F -0.768 ± 0.2 | N -0.953 ± 0.25 | R -0.93 ± 0.1 | C -0.508 ± 0.15 | Q -0.549 ± 0.18 | H -1.24 ± 0.3 | M -0.019 ± 0.11 | K -0.948 ± 0.17
A54: G 0.081 ± 0.26
T40: A -0.119 ± 0.079 | C -0.012 ± 0.094 | M 0.073 ± 0.11 | P -0.047 ± 0.089 | S 0.025 ± 0.073
N21: R -0.237 ± 0.083 | T 0.011 ± 0.13 | L -0.912 ± 0.12 | E -0.262 ± 0.12 | W -0.722 ± 0.14 | Q -0.26 ± 0.13
